Data as given in patent US8030325B2, “Biosynthetic gene cluster for the production of a complex polyketide” (Wyeth LLC, priority 2004, dated 2011).

B1: GDNF: glial-derived neurotrophic factor, control (protein, UniProt P39905 78-211, looked up)
Glial cell line-derived …: SPDKQMAVLPRRERNRQAAAANPENSRGKGRRGQRGKNRGCVLTAIHLNVTDLGLGYETKEELIFRYCSGSCDAAETTYDKILKNLSRNRRLVSDKVGQACCRPIAFDDDLSFLDDNLVYHILRKHSAKRCGCI

Tested on: mesencephalic dopanergic neuron cultures
Assay: High-affinity 3H-DA uptake in ventral mesencephalic cultures, with or without MPP+ exposure
Type: cell-based, rat
Settings: for protection against MPP toxicity (3H-DA uptake): pre-treatment 1 hr or 24 hr, MPP+ 1 hr, recovery 24 hr or 48 hr
Experimental: Ventral mesencephalic cultures were prepared from E15 rat embryos and maintained for […] before experimentation according to the method of Pong et al., J Neurochem.
Cultures were then exposed to 10 μM 1-methyl-4-phenylpyridinium (MPP+) for 1 hr, in the presence of drug. After the 1 hr exposure, media was changed 3×, and fresh drug was added for an additional 24 hr or 48 hr.

Molecule | protection against MPP toxicity (3H-DA uptake) | DA uptake in normal mesencephalic dopanergic neuron cultures (normal cultures, no MPP+)
CC/C1=C\CC(/C(C)=C/C(C)C(C)O)OC(=O)C2CCCCN2C(=O)C(=O)C2(O)OC(CCC2C)CC(O)C(C)C(O)CC(O)CC(O)/C(C)=C/C(C)CC(C)C1O (stereo not drawn) [meridamycin] | partial, but significant protection | 
B1 | partial, but significant protection | enhanced DA uptake
